Measurements from patent US20220195008A1 (US Dept. of Health and Human Services, published 2022).

B1: anti-MAGE-A3 TCR 13-18 (TCR, V domains shown)
V domain 1: QKEVEQDPGPLSVPEGAIVSLNCTYSNSAFQYFMWYRQYSRKGPELLMYTYSSGNKEDGRFTAQVDKSSKYISLFIRDSQPSDSATYLCAMRGAQKLVFGQGTRLTINP
V domain 2: DAMVIQNPRYQVTQFGKPVTLSCSQTLNHNVMYWYQQKSSQAPKLLFHYYDKDFNNEADTPDNFQSRRPNTSFCFLDIRSPGLGDAAMYLCATSWDRGYEQYFGPGTRLTVTE
B2: anti-MAGE-A12 TCR FM8 (TCR, V domains shown)
V domain 1: QTVTQSQPEMSVQEAETVTLSCTYDTSESDYYLFWYKQPPSRQMILVIRQEAYKQQNATENRFSVNFQKAAKSFSLKISDSQLGDAAMYFCAYRSAQGGSEKLVFGKGTKLTVNP
V domain 2: ETGVTQTPRHLVMGMTNKKSLKCEQHLGHNAMYWYKQSAKKPLELMFVYSLEERVENNSVPSRFSPECPNSSHLFLHLHTLQPEDSALYLCASSQTTYYNEQFFGPGTRLTVLE

Tests used:
[1] = molecular target: MAGE-A3 168-176 peptide (…) in the context of HLA-A*01 (human); test: cell-based or functional assay
[2] = molecular target: MAGE-A12:170-178 in the context of HLA-Cw7 (subtype not stated at that place) (human); test: cell-based or functional assay

Binder	minimum peptide concentration for recognition, relative to TCR A10 [1]	minimum peptide concentration for recognition, relative to TCR 502 [2]
B1	10 fold (higher than for TCR A10)	–
B2	–	100 fold (higher than for TCR 502)
